Assay results: US20240383986A1 (OXFORD UNIVERSITY INNOVATION, published 2024)
Numbering of substitutions follows the chain as printed.

B1: 110 (VR12112) (antibody, V domains shown)
VH: QSVEESGGRLVTPGTPLTLTCTVSGFSLSSYAMIWVRQAPGKGLEWIGIINSSDNTHYATWAKGRFTISKTSTTVDLKITSPTTEDTATYFCARDPYDYGYGWYFDLWGPGTLVTVSS
VL: AQVLTQTPSPVSAAVGGTVTINCQASQSVFNNKNLAWYQQKPGQPPKLLIYKASTLASGVSSRFKGSGSGTQFALTISGVQCDDAATYYCQGEFSCSSTDCVTFGGGTEVVVK
B2: 111 (VR12113) (antibody, V domains shown)
VH: QSVEESGGRLVTPGTPLTLTCTASGFSLSTYAMSWVRQAPGKGLEWIGIISSSGSTYYASWAKGRFTISKTSTTVDLKITSPTTEDTATYFCARETWYWLDLWGQGTLVTVSS
VL: AVEMTQTPASVSAAVGGTVTINCQASEDIYSNLAWYQQKPGQPPKLLIYGASTLASGVPSRFKGSGSGTEYTLTISGVQCDDAATYYCQCAYDSSSYGTPFGGGTEVVVK
B3: 116 (VR12117) (antibody, V domains shown)
VH: QSVEESGGRLVTPGTPLTLTCTVSGFSLSNYAMSWVRQAPGKGLEWIGIIYTTGFTYYASWVKGRFTISKTSTTVDLKITSPTTEDTATYFCARGLATYVSPPTRLDLWGQGTLVTVSS
VL: AQVLTQTPSPVSAAVGGTVTINCQASQSIYNSKNLAWYQQKPGQPPKLLIYSASTLASGVPSRFKGSGSGTQFTLTISDLECDDAATYYCQGEFSCSSVDCATFGGGTEVVVK
notes: also called OX116
B4: 77A (VR11851) (antibody, V domains shown)
VH: QSVEESGGRLVTPGTPLTLTCTVSGFSLSSYAMSWVRQAPGKGLEWIGIISSSGTTYYASWAKGRFTISKTSTTVDLKITSPTTEDTATYFCARVDYYSSGWGGLWGPGTLVTVSS
VL: B2 VL with V11M, N22K, A91T, S94T, T99N, P100T, V107M, K110E

Key:
[1] = molecular target: human CD1a expressed on cells (with human β2M) (human) (UniProt P06126)
[2] = molecular target: human CD1a expressed on cells (with human β2M) (human) (UniProt P06126); assay: flow cytometry of ear skin cells of a CD1a transgenic mouse given antibody 116 100 µg i.p. on days 0, 2 and 4 (row 'CD1a : OX116'), HI149 staining on day 5; the cloud lies on the lower edge of the gate
[3] = molecular target: human CD1a expressed on cells (with human β2M) (human) (UniProt P06126); assay: flow cytometry of ear skin cells of a CD1a transgenic mouse given isotype control (row 'CD1a : iso'), HI149 staining; the WT mouse panel prints 0
[4] = molecular target: human CD1a expressed on cells (with human β2M) (human) (UniProt P06126); assay: flow cytometry of ear skin cells of a CD1a transgenic mouse given antibody 116 100 µg i.p. on days 0, 2 and 4 (panel 'CD1a : OX116'), SK9 staining on day 5
[5] = molecular target: human CD1a expressed on cells (with human β2M) (human) (UniProt P06126); assay: flow cytometry of ear skin cells of a CD1a transgenic mouse given isotype control (panel 'CD1a : iso'), SK9 staining; the WT mouse panel prints 1.30
[6] = molecular target: T1, human CD1c expressed on HEK-293 cells (with human β2M) (human, UniProt P29017 18-333; P61769 21-119); assay: flow cytometry, transfected HEK-293 cells
T1 construct: whole, on cells; also called HEK-CD1c

[7] = molecular target: T2, human CD1b expressed on HEK-293 cells (with human β2M) (human, UniProt P29016 18-333; P61769 21-119); assay: flow cytometry, transfected HEK-293 cells
T2 construct: whole, on cells; also called HEK-CD1b

[8] = molecular target: T3, human CD1d expressed on HEK-293 cells (with human β2M) (human, UniProt P15813 20-335; P61769 21-119); assay: flow cytometry, transfected HEK-293 cells
T3 construct: whole, on cells; also called HEK-CD1d

[9] = molecular target: human CD1a expressed on cells (with human β2M) (human, UniProt P06126 17-327; P61769 21-119); assay: cell-based or functional assay

| Molecule | IC50 of inhibition of the polyclonal T cell IFNγ ELISpot response to CD1a-K562 (n=6 donors) [1] [µg/mL] | binding result [6] | binding result [7] | binding result [8] | IC50 of inhibition of the polyclonal T cell IFNγ ELISpot response to CD1a-K562 (n=6 donors) [9] [µg/mL] | also measured |
| --- | --- | --- | --- | --- | --- | --- |
| OKT6 (antibody) | 1.97 |  |  |  |  |  |
| HI149 (antibody) | 1.14 |  |  |  |  | CD1a+ gate (percent of plotted cells) [2]: 46.6%; CD1a+ gate (percent of plotted cells) [3]: 82.2% |
| SK9 (antibody) | 6960 |  |  |  |  | CD1a+ gate (percent of plotted cells) [4]: 87.4%; CD1a+ gate (percent of plotted cells) [5]: 84.9% |
| B1 |  | no binding (tested: up to 100 µg/ml) | no binding (tested: up to 100 µg/ml) | no binding (tested: up to 100 µg/ml) | 0.155 |  |
| B2 |  | no binding (tested: up to 100 µg/ml) | no binding (tested: up to 100 µg/ml) | no binding (tested: up to 100 µg/ml) | 1.04 |  |
| B3 |  | no binding (tested: up to 100 µg/ml) | no binding (tested: up to 100 µg/ml) | no binding (tested: up to 100 µg/ml) | 0.141 |  |
| B4 |  | no binding (tested: up to 100 µg/ml) | no binding (tested: up to 100 µg/ml) | no binding (tested: up to 100 µg/ml) |  | IC50 of inhibition of the polyclonal T cell IFNγ ELISpot response to CD1a-K562 (n=6 donors); table row '77' [9]: 0.181 µg/mL |
